Usually Kd stands for a measure of binding affinity in units of concentration. The low end stands for a tighter complex, the high end for a looser complex.

Assay [1] concerns the target 6× his-S–tagged importin β (UniProt Q14974 1-876). Put plainly: ELISA.
Assay [2] deals with importin β–IBB domain complex (UniProt Q14974 1-876; P52292 2-60). Put plainly: ELISA. On the technique in general: In an ELISA, binding on a coated surface is turned into a signal by an enzyme label.
Sequence of importin β–IBB domain complex (Q14974 whole entry, chain 1 of 2, other chains not shown, the tested form may be a part): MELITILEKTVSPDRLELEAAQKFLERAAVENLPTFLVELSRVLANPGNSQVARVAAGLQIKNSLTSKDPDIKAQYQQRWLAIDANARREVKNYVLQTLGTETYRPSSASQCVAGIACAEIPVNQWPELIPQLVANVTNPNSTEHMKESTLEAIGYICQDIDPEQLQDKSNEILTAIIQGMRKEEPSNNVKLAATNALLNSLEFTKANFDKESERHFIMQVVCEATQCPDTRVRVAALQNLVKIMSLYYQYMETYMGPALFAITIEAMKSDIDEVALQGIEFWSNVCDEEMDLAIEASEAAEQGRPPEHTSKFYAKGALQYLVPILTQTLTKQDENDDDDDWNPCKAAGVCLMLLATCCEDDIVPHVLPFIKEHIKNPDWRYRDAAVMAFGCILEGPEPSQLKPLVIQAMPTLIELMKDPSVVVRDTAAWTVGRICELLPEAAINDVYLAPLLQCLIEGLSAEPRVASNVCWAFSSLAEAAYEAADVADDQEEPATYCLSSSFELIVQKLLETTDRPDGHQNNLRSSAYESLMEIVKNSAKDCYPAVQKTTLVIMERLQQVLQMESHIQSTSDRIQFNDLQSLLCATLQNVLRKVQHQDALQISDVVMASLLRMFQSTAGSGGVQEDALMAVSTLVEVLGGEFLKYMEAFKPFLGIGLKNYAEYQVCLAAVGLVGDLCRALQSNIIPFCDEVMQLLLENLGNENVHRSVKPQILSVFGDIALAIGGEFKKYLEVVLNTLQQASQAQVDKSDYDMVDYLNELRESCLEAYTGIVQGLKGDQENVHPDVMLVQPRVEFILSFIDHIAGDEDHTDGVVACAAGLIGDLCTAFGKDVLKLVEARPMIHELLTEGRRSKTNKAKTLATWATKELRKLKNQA

Sequence of 6× his-S–tagged importin β (Q14974 whole entry, the tested form may be a part): as the sequence (Q14974 whole entry, chain 1 of 2, other chains not shown, the tested form may be a part) above

B1: GST-tagged Nup54 (natural protein, UniProt P70582 1-510, looked up)
chain: MAFNFGAPSGTSGTSTATAAPAGGFGGFGTTTTTAGSAFSFSAPTNTGSTGLLGGTQNKGFGFGTGFGTSTGTGTGLGTGLGTGLGFGGFNTQQQQQQQQTSLGGLFSQPAQAPAQSNQLINTASALSAPTLLGDERDAILAKWNQLQAFWGTGKGYFNNNIPPVEFTQENPFCRFKAVGYSCMPNNKDEDGLVVLIFNKKETDIRSQQQQLVESLHKVLGGNQTLTVNVEGIKTLPDDQTEVVIYIVERSPNGTSRRVPATTLYAHFEQANIKTQLQQLGVTLSMTRTELSPAQIKQLLQNPPAGVDPIIWEQAKVDNPDSEKLIPVPMVGFKELLRRLKVQDQMTKQHQTRLDIISEDISELQKNQTTTMAKIAQYKRKLMDLSHRTLQVLIKQEIQRKSGYAIQAEEEQLRVQLDTIQGELNAPTQFKGRLNELMSQIRMQNHFGAVKSEEKYYIDADLLREIKQHLKQQQEGLSHLISIIKDDLEDIKLVEHGLNETIHSRGGVFS
As for B1, the values for the Kd in assay [1] and in assay [2] were 112 ± 6.5 nM and 108 ± 8.5 nM, respectively.

B2: 6× his–tagged COOH-terminal segment of human Nup153 comprising amino acids 609–1475 (domain or fragment, UniProt P49790 609-1475, looked up)
chain: LDILKSPGFASPKIDSVAAQPTATSPVVYTRPAISSFSSSGIGFGESLKAGSSWQCDTCLLQNKVTDNKCIACQAAKLSPRDTAKQTGIETPNKSGKTTLSASGTGFGDKFKPVIGTWDCDTCLVQNKPEAIKCVACETPKPGTCVKRALTLTVVSESAETMTASSSSCTVTTGTLGFGDKFKRPIGSWECSVCCVSNNAEDNKCVSCMSEKPGSSVPASSSSTVPVSLPSGGSLGLEKFKKPEGSWDCELCLVQNKADSTKCLACESAKPGTKSGFKGFDTSSSSSNSAASSSFKFGVSSSSSGPSQTLTSTGNFKFGDQGGFKIGVSSDSGSINPMSEGFKFSKPIGDFKFGVSSESKPEEVKKDSKNDNFKFGLSSGLSNPVSLTPFQFGVSNLGQEEKKEELPKSSSAGFSFGTGVINSTPAPANTIVTSENKSSFNLGTIETKSASVAPFTCKTSEAKKEEMPATKGGFSFGNVEPASLPSASVFVLGRTEEKQQEPVTSTSLVFGKKADNEEPKCQPVFSFGNSEQTKDENSSKSTFSFSMTKPSEKESEQPAKATFAFGAQTSTTADQGAAKPVFSFLNNSSSSSSTPATSAGGGIFGSSTSSSNPPVATFVFGQSSNPVSSSAFGNTAESSTSQSLLFSQDSKLATTSSTGTAVTPFVFGPGASSNNTTTSGFGFGATTTSSSAGSSFVFGTGPSAPSASPAFGANQTPTFGQSQGASQPNPPGFGSISSSTALFPTGSQPAPPTFGTVSSSSQPPVFGQQPSQSAFGSGTTPNSSSAFQFGSSTTNFNFTNNSPSGVFTFGANSSTPAASAQPSGSGGFPFNQSPAAFTVGSNGKNVFSSSGTSFSGRKIKTAVRRRK
On to B2, for which the Kd in assay [1] stood at 9 ± 2.5 nM; in assay [2], 9.4 ± 3 nM.

B3: GST-tagged Nup62 (natural protein, UniProt P17955 1-525, looked up)
chain: MSGFNFGGTGAPAGGFTFGTAKTATTTPATGFSFSASGTGTGGFNFGTPSQPAATTPSTSLFSLATQTSTTQTPGFNFGTTPASGGTGFSLGISTPKLSLSSTAATPATANTGSFGLGSSTLTNAISGASTSSQGTAPTGFVFGSSTTSAPSTGTTGFSFTSGSASQPGASGFNIGSVGSLAQPTALSGSPFTPATLATTTAGATQPAAATPTAATTSAGSTLFASIAAAPASSSTTVLSLSAPATTAATPTAGTLGFSLKAPGAAPGASTTSTTTTTTTTTTTASTSSSTTTTGFALSLKPLVPAGPSSVAATALPASSTAVGTTTGPAMTYAQLESLINKWSLELEDQERHFLQQATQVNAWDRTLIENGEKITSLHREVEKVKLDQKRLDQELDFILSQQKELEDLLSPLEESVKEQSGTIYLQHADEEREKTYKLAENIDAQLKRMAQDLKDIIEHLNMAGGPADTSDPLQQICKILNAHMDSLQWVDQSSALLQRRVEEASRVCESRRKEQERSLRIAFD
As for B3, the Kd turned out to be 100 ± 8 nM in assay [1] and 105 ± 6 nM in assay [2].

B4: Nup358-4 (amino acids 2500–3224) (domain or fragment, UniProt P49792 2500-3224, looked up)
chain: TSETTPKAVVSPPKFVFGSESVKSIFSSEKSKPFAFGNSSATGSLFGFSFNAPLKSNNSETSSVAQSGSESKVEPKKCELSKNSDIEQSSDSKVKNLFASFPTEESSINYTFKTPEKAKEKKKPEDSPSDDDVLIVYELTPTAEQKALATKLKLPPTFFCYKNRPDYVSEEEEDDEDFETAVKKLNGKLYLDGSEKCRPLEENTADNEKECIIVWEKKPTVEEKAKADTLKLPPTFFCGVCSDTDEDNGNGEDFQSELQKVQEAQKSQTEEITSTTDSVYTGGTEVMVPSFCKSEEPDSITKSISSPSVSSETMDKPVDLSTRKEIDTDSTSQGESKIVSFGFGSSTGLSFADLASSNSGDFAFGSKDKNFQWANTGAAVFGTQSVGTQSAGKVGEDEDGSDEEVVHNEDIHFEPIVSLPEVEVKSGEEDEEILFKERAKLYRWDRDVSQWKERGVGDIKILWHTMKNYYRILMRRDQVFKVCANHVITKTMELKPLNVSNNALVWTASDYADGEAKVEQLAVRFKTKEVADCFKKTFEECQQNLMKLQKGHVSLAAELSKETNPVVFFDVCADGEPLGRITMELFSNIVPRTAENFRALCTGEKGFGFKNSIFHRVIPDFVCQGGDITKHDGTGGQSIYGDKFEDENFDVKHTGPGLLSMANQGQNTNNSQFVITLKKAEHLDFKHVVFGFVKDGMDTVKKIESFGSPKGSVCRRITITECGQI
For B4, the Kd in assay [1] is 225 ± 14.4 nM; in assay [2], 220 ± 16 nM.

B5: GST-tagged Nup58 (natural protein, UniProt P70581 1-585, looked up)
chain: MATGFSFGSGTLGSTTVAPGGTGTGSGFSFGASSTPSVGLNFGTLGSSATPASTSTSASGFGTGLFGSKPGTGFTLGGTSAGTTATTSASTTGFSLGFSKPAASATPFALPVTSTTASGLTLSSALTSAPAASTGFTLNNLGATPATTTAASTGLSLGGALAGLGGSLFQSGNTATSGLGQNALSLSLGTATPTSAASSEGLGGIDFSTSSDKKSDKTGTRPEDSKALKDENLPPVICQDVENLQKFVKEQKQVQEEISRMSSKAMLKVQEDIKALKQLLSLAASGLQRNTLNIDKLKLETAQELKNAEIALRTQKTPPGLQHENTAPADYFRVLVQQFEVQLQQYRQQIEELENHLATQANNSHITPQDLSMAMQKIYQTFVALAAQLQSIHENVKVLKEQYLSYRKMFLGDAGDVFEARRTEAKKWQNAPRVTTGPTPFSTMPNAAAVAMAATLTQQQQPATGPQPSLGVSFGTPFGSGIGTGLQSSGLGSSNLGGFGTSSGFGCGTTGASTFGFGTTDKPSGSLSAGFGSSSTSGFNFSNPGITASAGLTFGVSNPASAGFGTGGQLLQLKRPPAGNKRGKR
In the case of B5, the Kd amounted to 101 ± 2 nM in assay [1] and 107 ± 8 nM in assay [2].
